The values that follow come from patent US20210253738A1 (UNITED STATES OF AMERICA AS REPRESENTED BY THE SECRETARY …, published 2021).

The target in experiment [1] is T1, bovine serum albumin (BSA) (bovine, UniProt P02769 25-607).
T1 construct: Unconjugated carrier protein used as a screening control; also called carrier protein
Description: indirect EIA, compounds coated on microtiter plates, clonal supernatant, goat anti-mouse IgG HRP detection. As to the method: (§1) An assay was developed to screen the Mabs for reactivity to the FTC conjugates. Microtiter plates were coated with the following reagents: FTC-peptide-dextran, FTC-peptide, FTC-peptide-LPH, FTC-peptide-BSA, FTC heptanoic acid, peptide only, peptide-LPH, peptide-BSA, BSA, LPH, and normal mouse serum (NMS). All compounds were diluted into sodium bicarbonate buffer, pH 9.6, to a concentration of 5 ug/ml; NMS was diluted 1:15. One hundred microliters of each solution was added to a column of the microtiter plate such that each row of the plate allowed the testing of a single clonal supernatant against all of the compounds in a single run. Plates were incubated at 4° C. overnight and then washed 3× with phosphate-buffered saline (PBS) containing 0.05% Tween 20 (PBS-T). Plates were blocked with PBS containing 0.5% nonfat dry milk for 1 hour at 37° C., washed 3×, and dried at 37° C. for 30 minutes. Prepared plates were covered with an adhesive seal, placed into a moisture resistant bag, and stored in a dessicant chamber at 20-24° C. until use.

The target in experiment [2] is T2, limulus polyphemus hemocyanin II (LPH) (Limulus polyphemus, UniProt P04253 1-628, limits assumed).
T2 construct: Unconjugated carrier protein used as a screening control; also called carrier protein
T2 sequence (looked up): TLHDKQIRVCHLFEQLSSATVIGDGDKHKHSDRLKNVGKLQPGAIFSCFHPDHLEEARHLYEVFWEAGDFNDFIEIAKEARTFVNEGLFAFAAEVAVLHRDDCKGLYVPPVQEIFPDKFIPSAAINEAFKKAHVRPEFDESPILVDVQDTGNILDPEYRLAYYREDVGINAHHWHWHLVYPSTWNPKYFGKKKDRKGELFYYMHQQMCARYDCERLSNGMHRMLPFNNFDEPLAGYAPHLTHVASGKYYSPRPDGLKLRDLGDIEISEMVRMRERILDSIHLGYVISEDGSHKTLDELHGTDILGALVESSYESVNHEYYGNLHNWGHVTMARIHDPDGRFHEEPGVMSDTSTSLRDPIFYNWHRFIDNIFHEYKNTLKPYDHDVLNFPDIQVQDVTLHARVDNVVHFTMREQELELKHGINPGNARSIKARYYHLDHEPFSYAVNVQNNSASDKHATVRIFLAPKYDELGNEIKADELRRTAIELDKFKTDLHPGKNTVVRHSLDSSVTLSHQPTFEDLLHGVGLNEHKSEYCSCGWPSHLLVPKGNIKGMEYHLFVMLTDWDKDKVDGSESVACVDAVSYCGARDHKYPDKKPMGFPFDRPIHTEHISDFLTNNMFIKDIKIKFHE
The experiment is described as above. The method, then:
as §1

T1 sequence (P02769 25-607 limits assumed): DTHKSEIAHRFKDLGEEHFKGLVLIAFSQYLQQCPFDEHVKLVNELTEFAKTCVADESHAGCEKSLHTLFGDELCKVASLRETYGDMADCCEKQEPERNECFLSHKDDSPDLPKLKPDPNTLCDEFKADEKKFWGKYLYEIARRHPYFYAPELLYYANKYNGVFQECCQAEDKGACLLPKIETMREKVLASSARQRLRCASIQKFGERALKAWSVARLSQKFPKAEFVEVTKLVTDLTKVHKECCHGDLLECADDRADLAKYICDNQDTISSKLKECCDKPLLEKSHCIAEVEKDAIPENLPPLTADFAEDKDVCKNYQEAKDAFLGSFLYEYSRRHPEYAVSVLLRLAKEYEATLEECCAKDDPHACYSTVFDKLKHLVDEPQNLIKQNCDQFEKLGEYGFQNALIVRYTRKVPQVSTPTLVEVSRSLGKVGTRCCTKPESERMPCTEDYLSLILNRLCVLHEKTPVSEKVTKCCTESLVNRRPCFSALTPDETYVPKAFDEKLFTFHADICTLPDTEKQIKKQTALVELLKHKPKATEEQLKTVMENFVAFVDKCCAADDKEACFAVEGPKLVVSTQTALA

B1: 5D2 monoclonal antibody (antibody, mouse IgG2b, kappa, V domains shown)
VH: QVQLQQPGAELVKPGASVKVSCKASGYTFTSYWMHWVKQRPGQGLEWIGRIHLSDSDTNYNQNFKDKATLTVDKSSRTAHMHLSSLTSADSAVYYCAMGGTFQSNYDTYWGQGTLVTVSA
VL: DIQMTQSPASLSASVGETVTITCRASGNIHNYLAWYQQKQGKSPQLLVYNAKTLTDGVPSRFSGSGSGTQYSLKINSLQPEDFGNYYCQHFLYTPYTFGGGTKLEMRR
notes: Mouse IgG2b, kappa, raised against the small molecule emtricitabine (FTC); In the lateral flow assay the antibody was conjugated to gold; also called Mab 5D2; FTC (5D2) monoclonal antibody
With B1, the binding result in experiment [1] and in experiment [2] was “no binding (tested: 5 ug/ml (coating concentration))” each time.
